Laboratory results taken from patent US20220185894A1 (F STAR THERAPEUTICS, published 2022).
Several values for one entry are separate records, joined by “and”; a condition that tells them apart may be missing. Identical values can stand only once.

How the values were obtained:
[1] = target: T1, human LAG-3 expressed on cells (human, UniProt P18627 23-525); test: flow cytometry on HEK cells expressing human LAG-3
T1 construct: also called hLAG-3; DO11.10 hLAG-3
T1 sequence: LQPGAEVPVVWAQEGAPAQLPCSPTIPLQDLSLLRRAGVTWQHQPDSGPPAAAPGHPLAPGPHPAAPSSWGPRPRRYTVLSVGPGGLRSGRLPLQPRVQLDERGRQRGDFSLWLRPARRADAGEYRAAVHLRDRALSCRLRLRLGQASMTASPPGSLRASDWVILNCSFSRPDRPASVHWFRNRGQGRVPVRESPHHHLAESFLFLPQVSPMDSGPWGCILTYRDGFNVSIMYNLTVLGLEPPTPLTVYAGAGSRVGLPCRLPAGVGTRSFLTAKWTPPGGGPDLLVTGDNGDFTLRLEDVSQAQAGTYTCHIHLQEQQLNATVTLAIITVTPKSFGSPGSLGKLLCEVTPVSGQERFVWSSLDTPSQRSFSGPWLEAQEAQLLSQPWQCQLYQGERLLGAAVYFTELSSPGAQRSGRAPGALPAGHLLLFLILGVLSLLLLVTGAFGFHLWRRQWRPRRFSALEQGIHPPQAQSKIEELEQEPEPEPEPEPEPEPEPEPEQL
Method: (§1) The affinity of the mAb² (all containing the LALA mutation) for cell expressed human or cynomolgus LAG-3 was determined using flow cytometry. HEK cells expressing human or cynomolgus LAG-3 grown in DMEM (Life Technologies, 61965-026) containing 10% FBS (Life Technologies, 10270-1-6), 100 μg/ml Hygromycin B (Melford Laboratories Ltd, Z2475), 15 μg/ml Blasticidin (Melford Laboratories Ltd, B1105) and 1 μg/ml Doxycyclin (Sigma, D9891) were detached from tissue culture flasks using cell dissociation buffer (Life Technologies, 13151-014) and seeded in V-bottom 96-well plates (Costar, 3897) at 2×10⁵ cells/well. The plates were centrifuged at 1500 rpm for 3 min at 4° C. to pellet the cells. A dilution series of the mAb² (or control mAb) were incubated with the cells in a 100 μl volume for 1 h at 4° C. The plates were washed and secondary antibody (Anti-human Fc-488, Jackson ImmunoResearch, 109-546-098) was diluted 1:1000 in PBS and 100 μl was added to the cells for 30 min at 4° C. (plates were kept in the dark). The plates were washed and then cells were resuspended in 100 μl PBS containing 1 μg/ml DAPI (Biotium, 40043). The plates were read using Canto II flow cytometer (BD Bioscience). Dead cells were excluded and the fluorescence in the FITC channel (488 nm/530/30) was measured. The data was fit using log (agonist) vs response in GraphPad Prism Software. The plates were read on a BD FACSCanto II cytometer (BD Biosciences) and the data analysed using FlowJo.

[2] = target: T2, human PD-L1 expressed on cells (human, UniProt Q9NZQ7 19-290); test: flow cytometry on HEK cells expressing human PD-L1
T2 construct: also called hPD-L1; human PD-L1 HEK
Method: as §1, with “HEK cells” for “The affinity of the mAb² (all containing the LALA mutation) for cell expressed human or cynomolgus LAG-3 was determined using flow cytometry. HEK cells”, “or cynomolgus PD-L1 grown in” for “or cynomolgus LAG-3 grown in”, “control mAb) was incubated with” for “control mAb) were incubated with”, “were washed then cells” for “were washed and then cells”

[3] = target: T3, cynomolgus LAG-3 expressed on cells (cynomolgus monkey, UniProt P18627 24-525 (human entry)); test: flow cytometry on HEK cells expressing cynomolgus LAG-3
T3 construct: also called cLAG-3; cyno LAG-3
T3 chain: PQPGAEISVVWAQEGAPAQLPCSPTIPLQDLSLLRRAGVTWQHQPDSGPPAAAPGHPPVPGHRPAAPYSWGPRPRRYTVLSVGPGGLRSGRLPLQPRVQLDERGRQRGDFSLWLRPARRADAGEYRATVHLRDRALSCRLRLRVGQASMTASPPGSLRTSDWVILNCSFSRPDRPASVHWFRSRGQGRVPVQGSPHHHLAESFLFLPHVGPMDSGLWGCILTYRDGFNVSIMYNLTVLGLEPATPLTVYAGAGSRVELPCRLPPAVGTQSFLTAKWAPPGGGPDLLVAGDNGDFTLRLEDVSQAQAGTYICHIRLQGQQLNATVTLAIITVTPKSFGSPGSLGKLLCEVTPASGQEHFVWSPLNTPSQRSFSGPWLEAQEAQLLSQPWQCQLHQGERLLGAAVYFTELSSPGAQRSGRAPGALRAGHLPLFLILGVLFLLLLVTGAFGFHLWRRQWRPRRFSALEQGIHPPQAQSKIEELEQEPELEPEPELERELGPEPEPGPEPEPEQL
Method: as §1

T2 sequence (Q9NZQ7 19-290 limits assumed): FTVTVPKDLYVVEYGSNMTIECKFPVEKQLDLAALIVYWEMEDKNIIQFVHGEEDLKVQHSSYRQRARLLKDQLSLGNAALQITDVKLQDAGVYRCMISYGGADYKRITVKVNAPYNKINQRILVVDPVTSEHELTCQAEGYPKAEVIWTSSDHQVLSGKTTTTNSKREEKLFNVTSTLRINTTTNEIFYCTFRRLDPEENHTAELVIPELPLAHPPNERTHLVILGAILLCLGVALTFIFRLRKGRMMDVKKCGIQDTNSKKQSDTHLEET

EC50 [1]: 3.18 nM
EC50 [2]: 3.19 nM and 3.51 nM
EC50 [3]: 29.9 nM
fold better binding (EC50) than control antibody 25F7 [3]: ≥ 2 fold
B1: anti-human LAG-3/PD-L1 mAb2 FS18-7-9/84G09 with LALA mutation (bispecific antibody, human IgG1, kappa, L234A L235A)
heavy: EVQLVESGGGLVQPGRSLRLSCAASGFTFDDYAMHWVRQTPGKGLEWVSGISWKSNIIGYADSVKGRFTISRDNAKNSLYLQMNSLRAEDTALYYCARDITGSGSYGWFDPWGQGTLVTVSSASTKGPSVFPLAPSSKSTSGGTAALGCLVKDYFPEPVTVSWNSGALTSGVHTFPAVLQSSGLYSLSSVVTVPSSSLGTQTYICNVNHKPSNTKVDKKVEPKSCDKTHTCPPCPAPEAAGGPSVFLFPPKPKDTLMISRTPEVTCVVVDVSHEDPEVKFNWYVDGVEVHNAKTKPREEQYNSTYRVVSVLTVLHQDWLNGKEYKCKVSNKALPAPIEKTISKAKGQPREPQVYTLPPSWDEPWGEDVSLTCLVKGFYPSDIAVEWESNGQPENNYKTTPPVLDSDGSFFLYSKLTVPYDRWVWPDEFSCSVMHEALHNHYTQKSLSLSPG
light: DIQMTQSPSSLSASVGDRVTITCRASQSISSYLNWYQQKPGKAPKPLIYVASSLQSGVPSSFSGSGSGTDFTLTISSLQPEDFATYYCQQSYSNPITFGQGTRLEIKRTVAAPSVFIFPPSDEQLKSGTASVVCLLNNFYPREAKVQWKVDNALQSGNSQESVTEQDSKDSTYSLSSTLTLSKADYEKHKVYACEVTHQGLSSPVTKSFNRGEC
notes: also called FS18-7-09/84G09LALA; FS18-7-9/84G09 LALA
